For 24 sequences, protein production results are on record in a protein production outcome set (Wang et al. 2014).

This data set is described as follows: label from the status in PepcDB records.
Turning to “EKRKVLIPIDFSNYSLKACQFGFSFANAINSEVVLLHAYFSPIYVPTIPYGTDNFNFQIEREESVKSMIETVHNELNKLSDTIKKKVESGEFPNIKYTCILRDGIPEEEILRYAKEYNPQIIIMGTRGRSQKDIDLIGSVTAEVIERSKSFVYAIPEHTPLK”, the protein production result is listed as “failed”.
In the case of “EKTVRVVINFKKTQKTIVRVSPHASLQELAPIICSKCEFDPLHTLLLKDYQSQEPLDLTKSLNDLGLRELYAMDVNRE”, the protein production result is on record as “not failed”.
To “ELEPGAFSELYQRYRHCDAPICLYEQGRDSFEDEGRWRLILCATCGSHGTHRDCSSLRPNSKKWECNECLPA” belongs “not failed”; to “EMGVAYLTEVVVNEVVEAHEVPEVQHALNINSSESLIHIVRTRRLNQHVKIVDEDYFLKSIVSDIGNDVASDSIYDYLEKVLNLNISYSSKSITFEPFDEQAYQLFGDVSVAYSATVRSIVYLENTMPFQYNISKHLANEFKFNDFSRRRIK”, “failed”; to “EPRVNTSALQKIAADMSNIIENLDTRELHFEGEEVDYDVSPSDPKIQEVYIPFSAIYNTQGFKEPNIQTYLSGCPIKAQVLEVERFTSTTRVPSINLYTIELTHGEFKWQVKRKFKHFQEFHRELLKYKAFIRIPIPTRRHTFRRQN”, “failed”.
Take “EQEDRALRSFKLSVTVDPKYHPKIIGRKGAVITQIRLEHDVNIQFPDKDDGNQPQDQITITGYEKNTEAARDAILRIVGELEQM”: the protein production entry was “not failed”.
Consider “EQITHWIVVQQDTTEQQRVQQAMRTQRDRLQRMQGVAQTGGWEYDPKSDSFTGSNEFYRLIGLPQSTNFDLERAFQLYPPSVRGRVKTAAQRCLEDGSPFDMEVPLVSATGQHREVRVRGSAEREEG”, for which the protein production result was “failed”.
To “EQNSKEKFKQLFRVLEDTFARPLSPYEIETLNQWIDVDKHDSAIIQAALDEANSLNKLSFKYMDRILLNWKKNNV” belongs “failed”; to “ERIPLAVGDTPATLYRLEGDAEAPLAVVTHGFGGSRQMMEAISLTLARAGLAVVSFDFRGQGRSAIPMSPDAFPNEAGSSGTTVQLVRQTLEVVEAARALPGIAGPPALIGHSMATDILVRAADRLPEVGPVALISAYSRQVTPETPARLLILSGQREGGLREVALEMARQVAPDAAEGETVRAGAVERRASVAPYVGHAGVLWSPTTLRELRDWL”, “failed”.
Next, “ERRGFSAEDFKTFHPGGKLGSQLLLAHELAHSGEAVPLLPIGSPMSEAVIQMSSKGFGVVGVVGGDGELVGVITDGDLRRHMSQSLLLLTVETVMSHMPRVITPGMLASAAMEMMQSQKITVLFLVDDVGRPSGILHVHDLLRA”: “failed”; “ERRKTLETYQQLFYLLQTNPLYLAKLIFQMPQNKSTKFMDTVIFTLYNYASNQREEYLLLKLFKTALEEEIKSKVDQVQDIVTGNPTVIKMVVSFNRGARGQNTLRQLLAPVVKEIIDDKSLIINTNPVEVYKAWVNQL”: “failed”; “ESILANLSAGVIAFSGDWHIRAANTSASRILGVDFSQLAEHRFPEWGGVMPAVASLVETVMQHADSDVESDWQTQLGYDTAQGERTLLVRGARLPEHSSDGYVLVFNDITE”: “failed”.
To “ESYTIPHPSYDQPDSYQEREIVIGNSTYPLPATLTVPKHQRGEKVPVVVLVHGAGIHDRDATYLGTKILRDLAVGLSSNGIAVLRYEKRTLEHALKMSAEPVTLDRDTTDDAIYAAKSAAQQEGIDPNNIFILGHSQGAGTMPRILSKAPSSLVRGSILLAPPAHPLTDIAIDQYQYLGKPQEEIDELKRQAAFIQDPTFNPDHPPAGYNFGSPHFMYDVSRWRPVEEAKSRKEPLLILQGARDYQVTVKNEYTKWQEGLANRRNVQFKKYPKLNHFFTEGDGELSLPSEYEIPANVPEYVIQDIITWVNETK” belongs “failed”.
In the case of “ESYWRSRMIDAVTSDEDKVAPVYKLEEICDLLRSSHVSIVKEFSEFILKRLDNKSPIVKQKALRLIKYAVGKSGSEFRREMQRNSVAVRNLFHYKGHPDPLKGDALNKAVRETAHETISAIFSEENG”, the protein production result was “not failed”.
Consider “ETPVGLNLELTDQDGRPMFPDGSAVPYERTRKLVARLAAPLRATSLRVIIVGHTAATVVQAGDDDPLSLSVNRANAVREVLKQEGLPSSQVLSLVGKGDGEPLFPDAPALAANRRVTITLMRENPPLPPDLQR”, for which the protein production entry is given as “failed”.
As to “ETRIIKGFECKPHSQPWQAALFEKTRLLCGATLIAPRWLLTAAHCLKPRYIVHLGQHNLQKEEGCEQTRTATESFPHPGFNNSLPNKDHRNDIMLVKMASPVSITWAVRPLTLSSRCVTAGTSCLISGWGSTSSPQLRLPHTLRCANITIIEHQKCENAYPGNITDTMVCASVQEGGKDSCQGDSGGPLVCNQSLQGIISWGQDPCAITRKPGVYTKVCKYVDWIQETMKNN”, the protein production result is recorded as “failed”.
For the sequence “EVALRHPQSPKPCLIGNCQGGWAILTLMAANPDVAGVAVVNGAPLSYWGGENGKNPMRYIGGIWGGSWIAQMAGDLGNGKFDGANLVMNFEMANPKVTYWSKYYNLFANLDKEEIRFLNFERWWGGFSLLNVNEMRGIIDNLFIGNKLVHGKIPLGQSGNNLDLRNISVPVIIFCSEGDNITPPQQALNWVSDLYSNTLEIKLDGQVIVYLIHKSVGHLGIFVSSEVAKKEHNQIIDLLN”, the protein production result is recorded as “not failed”.
Next, “EYQVLNLFICGIGTVGGSLVEQIRCQQQKLMMENGLKLHVVGIIDAAKAMFSREGFDLANFREELQKKGKDSNLQTIRDEIVGMNIFNSVFVDCTASPDIASLYKDLLQHNVSVVAANKIAASSAYENYRELKTIARQRGVKYLFETNVGAGLPIINTINDLIHSGDKILKIEAVLSGTLNYIFNK”: “failed”; “FCGRARVHTDFTPSPYDTDSLKLKKGDIIDIISKPPMGTWMGLLNNKVGTFKFIYVDVLS”: “not failed”.
Turning to “FDASTLYVPEDFLNSCTPGMRKWWQIKSQNFDLVICYKVGKFYELYHMDALIGVSELGLVFMKGNWAHSGFPEIAFGRYSDSLVQKGYKVARVEQTETPEMMEARCRKMAHISKYDRVVRREICRIITKGTQTYSVLEGDPSENYSKYLLSLKEKEEDSSGHTRAYGVCFVDTSLGKFFIGQFSDDRHCSRFRTLVAHYPPVQVLFEKGNLSKETKTILKSSLSCSLQEGLIPGSQFWDASKTLRTLLEEEYFREKLSDGIGVMLPQVLKGMTSESDSIGLTPGEKSELALSALGGCVFYLKKCLIDQELLSMANFEEYIPLDSDTVSTTRSGAIFTKAYQRMVLDAVTLNNLEIFLNGTNGSTEGTLLERVDTCHTPFGKRLLKQWLCAPLCNHYAINDRLDAIEDLMVVPDKISEVV”, the protein production result was “failed”.
Turning to “FDGNLKRYLKSEPIPESNDGPVKVVVAENFDEIVNNENKDVLIEFYAPWCGHCKNLEPKYKELGEKLSKDPNIVIAKMDATANDVPSPYEVRGFPTIYFSPANKKLNPKKYEGGRELSDFISYLQREAT”, the protein production entry is “not failed”.
Next, “FHWVNDGYADFDGFLAALSSRKRKAIRKERAQAQGFGGQIRELTGGDLRPEHWDAFWRFYQDTGARKWGSPYLTRAFFDIAHQTMADDMVLVLAERDGIPVAGALNFIGREALFGRYWGCVEHHPCLHFELCYYRAIDWAIAHGLARVEAGAQGEHKLARG”: “not failed”; “FKGKNLLVIQVESLENFVINKSVNGQEITPNLNKLLKNSLYFSNYNEEVNQGTTSDAELMTNTSIYPVSTGSTFFRYPDNKYYNSLPKILERQGYYTQAMHGDKGSYWNWKPALKSIGFQNIVDSTGFKDDENIGLGLSDGSFLRQAEPMVEASKGPWYNYVITMSGHAPFDLPTKYRELKINSELDSSYLGGYLQSVHYEDKQIGIFLDNLRKSGALDNTMVVIYGDHCGIHKYYQSDVETTKGAESWMIDNHKEVPLIVYNSSLKGKEITTTGGQIDLMPTILYLMGIDKNEYLNTAMGRNLLNTNESYAVWSNGEFIG”: “failed”; “FLEVNYYSRVLGMNRVMNVLLPEESDHNPNWTNDSLKDLPVLYLLHGMSGNHFDWQRKSDIERLLRQTKLAVIMPAADLAWYTNTDYGMNYFDAISQELPRKVASLFPQISTKRKKHFVAGMSMGGYGAFKLAFSSSYFSYAASLSGTLISSLNYPGFLDMEKQAYWKGIFGDLDKFSGSKNDIFELAKRQSNTGIELPKLYAWVGQQDFFYGANEKAIPRLRKMGYDVSYETNPGDHEWYYWSKYIENILQWLPINYQAEKRLS”: “failed”.
